Measured values: patent publication US20140287419A1, “Compositions Having Dicamba Decarboxylase Activity and Methods of Use” (priority 2013, published 2014)

Tests used:
[1] = 14C assay with IPTG-induced recombinant E. coli cells (14CO2 capture from [14C]-carboxyl-labeled dicamba); conditions: dicamba decarboxylation activity of the protein of the given SEQ ID NO
[2] = Dicamba decarboxylation activity of computationally designed protein variants; conditions: for Percent Activity Improvement Over Parent (%): parent SEQ ID NO:1 or SEQ ID NO:41 listed as 100
[3] = Table 4, variants designed to introduce activity
[4] = Table 5, designed variants with improved activity

Row | Molecule | Enzymatic Detection level [1] | Dicamba Decarboxylation activity [2, 3] | Dicamba Decarboxylation activity [2, 4] | Percent Activity Improvement Over Parent (%) [2]
1 | 117 (protein, Dicamba decarboxylase variant clone DC.5.008) MAKKPRIDMHSHFFPRISEQEAAKFDANHAPWLQVSAKGDTGSIMMGKNNFRPVYQALWDPAFRIEEMDAQGVDVQVTCATPVMFGYTWEANKAAQWAERMNDFALEFAAHNPQRIKVLAQVPLQDLDLACKEASRAVAAGHLGIQIGNHLGDKDLDDATLEAFLTHCANEDIPILVHPWDMMGGQRMKKWMLPVLVAAPAEVQLAILSLILSGAFERIPKSLKICFAGGGGSFAFLLGIVDLAWRHRDIVREDCPRPPSEYVDRFFVDSLVFNPGALELLVSVMGEDRVMLGSDYPFPTGEQKIGGLVLSSNLGESAKDKIISGNASKFFNINV | High | Yes |  | 
2 | 111 (protein, Dicamba decarboxylase variant clone DC.4.112) MAQGKVALEEHFAIPETLQDSMGFVPGDYWKELMHRLLDIQDTRLKLMDAHGIETMILSLNAPAVQAIPDRRKAIEIARRANDVLAEECAKRPDRFLAFAALPLQDPDAATEELQRCVNDLGFVGALVNGFSQEGDGQTPLYYDLPQYRPFWGEVEKLDVPFYLHPRNPLPQDSRIYDGHPWLLGPTWAFAQETAVHALRLMASGLFDEHPRLNIILGHMGEGLPYMMWRIDHRMAWIKLPPRYPAKRRFMDYFNENFHITTSGNFRTQTLIDAILEIGADRILFSTDWPFENIDHASDWFNATSIAEADRVKIGRTNARRLFKLDGA | High |  | Yes | 237%
3 | 110 (protein, Dicamba decarboxylase variant clone DC.4.111) MAQGKVALEEHFAIPETLQDSMGFVPGDYWKELMHRLLDIQDTRLKLMDAHGIETMILSLNAPAVQAIPDRRKAIEIARRANDVLAEECAKRPDRFLAFAALPLQDPDAATEELQRCVNDLGFVGALVNGFSQEGDGQTPLYYDLPQYRPFWGEVEKLDVPFYLHPRNPLPQDSRIYDGHPWLLGPTWAFAQETAVHALRLMASGLFDEHPRLNIILGHMGEGLPYMMWRIDHRMAWVKLPPRYPAKRRFMDYFNENFHITTSGNFRTQTLIDAILEIGADRILFSTDWPFENIDHASDWFNATSIAEADRVKIGRTNARRLFKLDGA | High |  | Yes | 277%
4 | 112 (protein, Dicamba decarboxylase variant clone DC.4.113) MAQGKVALEEHFAIPETLQDSAGFVPGDYWKELVHRLLDIQDTRLKLMDAHGIETMILSLNAPAVQAIPDRRKAIEIARRANDVLAEECAKRPDRFLAFAALPLQDPDAATEELQRCVNDLGFVGALVNGFSQEGDGQTPLYYDLPQYRPFWGEVEKLDVPFYLHPRNPLPQDSRIYDGHPWLLGPTWAFAQETAVHALRLMASGLFDEHPRLNIILGHMGEGLPYMMWRIDHRVAWVKLPPRYPAKRRFMDYFNENFHITTSGNFRTQTLIDAILEIGADRILFSTDWPFENIDHASDWFNATSIAEADRVKIGRTNARRLFKLDGA | High |  | Yes | 219%
5 | 113 (protein, Dicamba decarboxylase variant clone DC.4.114) MAQGKVALEEHFAIPETLQDSAGFVPGDYLKELFHRLLDIQDTRLKLMDAHGIETMILSLNAPAVQAIPDRRKAIEIARRANDVLAEECAKRPDRFLAFAALPLQDPDAATEELQRCVNDLGFVGALVNGFSQEGDGQTPLYYDLPQYRPFWGEVEKLDVPFYLHPRNPLPQDSRIYDGHPWLLGPTWAFAQETAVHALRLMASGLFDEHPRLNIILGHMGEGLPYMMWRIDHRVAWVKLPPRYPAKRRFMDYFNENFHITTSGNFRTQTLIDAILEIGADRILFSTDWPFENIDHASDWFNATSIAEADRVKIGRTNARRLFKLDGA | High |  | Yes | 224%
6 | 114 (protein, Dicamba decarboxylase variant clone DC.4.116) MAQGKVALEEHFAIPETLQDSAGAVPGDYWKELQHRLLDIQDTRLKLMDAHGIETMILSLNAPAVQAIPDRRKAIEIARRANDVLAEECAKRPDRFLAFAALPLQDPDAATEELQRCVNDLGFVGALVNGFSQEGDGQTPLYYDLPQYRPFWGEVEKLDVPFYLHPRNPLPQDSRIYDGHPWLLGPTWAFAQETAVHALRLMASGLFDEHPRLNIILGHMGEGLPYMMWRIDHRVAWVKLPPRYPAKRRFMDYFNENFHITTSGNFRTQTLIDAILEIGADRILFSTDWPFENIDHASDWFNATSIAEADRVKIGRTNARRLFKLDGA | High |  | Yes | 221%
7 | 121 (protein, Dicamba decarboxylase variant clone DC.12.014) MAIIDCHGHYTTTPKGVEDYRNAQKAAVAKDPSFKGEKGQVVVSDDEIRESIENNQLKMQRERGTDLTIFSPRWDAGGHHIGNEYTSQFWTEHQNDLIRRVCDLFPKNFAPVAQLPQSPGVDPAKSVPEIVRTVEQMGFIGINLNPDPSGGYWKDTSLADRAFYPIYEKMVEYDIPAMIHPRLACNACFHTGLSVGLGADTTGFQQLIMSDVFKDFPSLKIIIPHGGGAVPYHWGRFRGLMQDQGYAPLEESALKNIYFDTCVYHQRGIDLLLDIVPTQNILFASEMIGAVRGIDPETGHNFDDTKRYIDNNTALNAEEKAMIFEGNARRVFSRLKTD | High | Yes |  | 
8 | 118 (protein, Dicamba decarboxylase variant clone DC.5.033) MAKKPRIDMHSHFFPRISEQEAAKFDANHAPWLQVSAKGDTGSIMMGKNNFQPVYQALWDPAFRIEEMDAQGVDVQVTCATPVMFGYTWEANKAAQWAERMNDFALEFAAHNPQRIKVLAQVPLQDLDLACKEASRAVAAGHLGIQIGNHLGDKDLDDATLEAFLTHCANEDIPILVHGTDMMGGQRMKKWGLPWLVALAAEVQLAILSLILSGAFERIPKSLKICFSHGGGSFAFLLGLVDEAWRHVDIVREDCPRPPSEYVDRFFVDSVGNPGALELLVSVMGEDRVMLGSDYPHTTGEQKIGGLVLSSNLGESAKDKIISGNASKFFNINV | High | Yes |  | 
9 | 119 (protein, Dicamba decarboxylase variant cloneDC.5.034) MAKKPRIDMHSHFFPRISEQEAAKFDANHAPWLQVSAKGDTGSIMMGKNNFQPVYQALWDPAFRIEEMDAQGVDVQVTCATPVMFGYTWEANKAAQWAERMNDFALEFAAHNPQRIKVLAQVPLQDLDLACKEASRAVAAGHLGIQIGNHLGDKDLDDATLEAFLTHCANEDIPILVHGWDMMGGQRMKKWGLYWLVAHHAEVQLAILSLILSGAFERIPKSLKICFSHGGGSFAFTLGWVDEAWRHVDIVREDCPRPPSEYVDRFFVDSVGNPGALELLVSVMGEDRVMLGSDYPLTTGEQKIGGLVLSSNLGESAKDKIISGNASKFFNINV | High | Yes |  | 
10 | 116 (protein, Dicamba decarboxylase variant clone DC.30.007) MAQGKVALEEHFAIPETLQDAAGFVPGDYWKELQHRLLDIQDRRVRLMDEHGIETMILSLNAPAVQAIADSTRANETARRANDFLAEQVAKQPTRFRGFAALPMQDPELAARELERCVKELGFVGALVNGFSQDNRSAVPLYYDMAQYWPFWETVQALDVPFYLHPRNPLPSDARIYDGHAWLLGPTWAFGQETAVHALRLMGSGLFDKYPALKIILGHMGEGLPYSMWRIDHRNAWIKTTPKYPAKRKIVDYFNENFYLTTSGNFRTQTLIDAILEIGADRILFSTDWPFENIDHAADWFENTSISEADRKKIGWGNAQNLFKLNR | High |  | Yes | 220%
11 | 115 (protein, Dicamba decarboxylase variant clone DC.4.161) MAQGKVALEEHFAIPDTLTTYTTSGDYEKELKHRLLDIQDTRLKLMDAHGIETMILSLNAPGVQAIPDRRKAIEIARRANDVLAEECAKRPDRFLAFAALPLQDPDAATEELQRCVNDLGFVGALVNGFSQEGDGQTPLYYDLPQYRPFWGEVEKLDVPFYLHPRNPLPQDSRIYDGHPWLLGPTWAFAQETAVHALRLMASGLFDEHPRLNIILGHMGEGLPYMMWRIDHRNAWVKTPPRYPAKRRFMDYFNENFHITTSGNFRTQTLIDAILEIGADRILFSTDWPFENIDHASDWFNATSIAEADRVKIGRTNARRLFKLDGA | High |  | Yes | 202%
12 | 120 (protein, Dicamba decarboxylase variant clone DC.12.002) MAIIDCHGHYTTTPKGVETYRNAQKAAVAKDPSFKYEKGQVVVSDDEIRESIENNQLKMQRERGTDLTIFSPRSTAGGHHIGNEYTSQFWTEHQNDLIRRVCDLFPKNFAPVAQLPQSPGVDPAKSVPEIVRTVEQMGFIGINLNPDPSGGYWKDTSLADRAFYPIYEKMVEYDIPAMIHPRNACNDCFHTTGSHALGADTTGFQQLIMSDVFKDFPSLKIIIPHGGGAVPYHWGRFRGLMQDQGYAPLEESALKNIYFDTCVYHQRGIDLLLDIVPTQNILFASEMIGAVRGIDAETGHNFDDTKRYIDNNTALNAEEKAMIFEGNARRVFSRLKTD | High | Yes |  | 
13 | 122 (protein, Dicamba decarboxylase variant clone DC.12.103) MAIIDCHGHYTTTPKGVEDYRNAQKAAVAKDPSFKGEKGQVVVSDDEIRESIENNQLKMQRERGTDLTIFSPRSTAGGHHIGNEYTSQFWTEHQNDLIRRVCDLFPKNFAPVAQLPQSPGVDPAKSVPEIVRTVEQMGFIGINLNPDPSGGYWKDTSLADRAFYPIYEKMVEYDIPAMIHPRNACNDCFHTTGSHALGADTTGFQQLIMSDVFKDFPSLKIIIPHGGGAVPYHWGRFRGLMQDQGYAPLEESALKNIYFDTCVYHQRGIDLLLDIVPTQNILFASDMIGAVRGIDPETGHNFDDTKRYIDNNTALNAEEKAMIFEGNARRVFSRLKTD | High | Yes |  | 
